From US20240084286A1, “METHODS AND COMPOSITIONS FOR INCREASING THE CONCENTRATION OF CELL FREE DNA” (The Broad Institute, Inc., priority 2021, published 2024)
“Also recorded” adds a separate entry of the source.

Legend:
DNase I = test: Fluorophore-quencher dsDNA nuclease protection fluorescence assay; type: biochemical
Text: FIGS. 8A-8B present the protection of dsDNA from nuclease digestion by various dsDNA binders. FIG. 8A presents a fluorescence assay measuring nuclease activity in digestion of dsDNA, which is diminished in presence of dsDNA binders.
FIGS. 28A-28E: FIG. 28A presents an experimental workflow for testing the effect of a DNA binding agent on clearance and degradation of cfDNA. A DNA-binding monoclonal antibody (mAb) is combined with recombinant nucleosome core particles (NCPs) consisting of a human histone octamer complexed with 20 ng of the Widom601 double-stranded DNA (dsDNA) oligonucleotide. […] Levels of Widom601 were quantified via Taqman qPCR. […]
The ability of DBP's—both known proteins and novel ones generated above—to protect dsDNA from nuclease digestion using a previously-established plate-based fluorescence assay was evaluated Known DBP's that can be tested included anti-dsDNA antibodies (some commercially available, e.g. Abcam ab27156),^20,21 members of the protamine family of DBP's, 22 and a family of small DNA-binding archaeal proteins including Sso7d.^23-25 A commercially available dsDNA probe conjugated to a HEX fluorophore and a quencher was incubated with recombinant DNase 1 and DNase 1L3 (the predominant nucleases in circulation). […]

DNase = test: Nuclease digestion time-series / electropherogram of dsDNA; type: biochemical; conditions: dsDNA oligonucleotide

| protection of dsDNA, digestion time-series (DNase) | Molecule | protection of dsDNA from nuclease digestion (DNase I) |
| --- | --- | --- |
|  | protamine sulfate [reference compound] | protect it from digestion by nucleases |
| dsDNA protection | Sso7d: Small archaeal histone-like DNA-binding protein from Sulfolobus solfataricus, SEQ ID NO: 3 (protein, listed as Saccharolobus solfataricus) MATVKFKYKGEEKEVDISKIKKVWRVGKMISFTYDEGGGKTGRGAVSEKDAPKELLQMLEKQKK | protect it from digestion by nucleases; also recorded: protect dsDNA from DNase I digestion |
